In patent CN103319600A (MILITARY MEDICINE INST OF NANJING MILITARY REGION, dated 2013):

Target: T1, 阴性对照蛋白BSA (UniProt P02769 25-607)
T1 construct: Negative control protein
Assay: ELISA

T1 sequence (P02769 25-607 limits assumed): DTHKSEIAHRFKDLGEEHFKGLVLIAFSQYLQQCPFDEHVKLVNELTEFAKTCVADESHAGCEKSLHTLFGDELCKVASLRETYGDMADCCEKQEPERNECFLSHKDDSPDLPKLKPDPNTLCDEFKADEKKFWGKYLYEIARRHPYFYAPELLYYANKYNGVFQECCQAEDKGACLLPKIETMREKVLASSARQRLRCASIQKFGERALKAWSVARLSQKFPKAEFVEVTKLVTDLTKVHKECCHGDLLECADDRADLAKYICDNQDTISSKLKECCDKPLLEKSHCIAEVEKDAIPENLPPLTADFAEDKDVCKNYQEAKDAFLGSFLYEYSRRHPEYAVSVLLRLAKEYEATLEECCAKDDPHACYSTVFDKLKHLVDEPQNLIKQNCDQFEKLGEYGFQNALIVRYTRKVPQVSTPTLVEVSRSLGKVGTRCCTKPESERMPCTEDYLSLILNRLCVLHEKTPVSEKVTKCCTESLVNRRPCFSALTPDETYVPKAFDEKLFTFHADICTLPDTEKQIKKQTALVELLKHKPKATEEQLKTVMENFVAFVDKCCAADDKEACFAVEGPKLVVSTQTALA

binding result: no binding
B1: 人源抗TLR4抗体Fab (Fab, V domains shown)
VH: EVQLVESGGGLVKPGRSLRLSCAASGFTFSSYAMHWVRQAPGKGLEWVAVISYDGSNKYYADSVKGRFTISRDNSENTLYLQMNSLRAEDTAVYYCAAYSSSSWFDPWGQGTLVTVSP
VL: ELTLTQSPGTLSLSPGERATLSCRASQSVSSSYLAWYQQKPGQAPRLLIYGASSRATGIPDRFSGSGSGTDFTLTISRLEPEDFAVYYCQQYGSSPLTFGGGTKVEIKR
notes: also called 抗TLR4基因工程抗体Fab; 抗TLR4的Fab
